From patent US20250346673A1 (DUALITY BIOLOGICS SUZHOU, published 2025)

T1: human BDCA2 (human, UniProt Q8WTT0 1-213)
T1 sequence (looked up): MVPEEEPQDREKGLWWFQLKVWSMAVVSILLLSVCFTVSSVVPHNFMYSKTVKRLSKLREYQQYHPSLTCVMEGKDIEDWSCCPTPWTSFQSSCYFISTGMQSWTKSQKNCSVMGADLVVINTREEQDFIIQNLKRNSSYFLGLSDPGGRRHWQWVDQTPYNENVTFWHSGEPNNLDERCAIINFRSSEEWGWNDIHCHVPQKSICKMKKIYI

T2: cynomolgus BDCA2 (cynomolgus monkey, UniProt A0A2K5UWP4 1-212)
T2 construct: whole, on cells; also called Cyno BDCA2; cynoBDCA2
T2 sequence: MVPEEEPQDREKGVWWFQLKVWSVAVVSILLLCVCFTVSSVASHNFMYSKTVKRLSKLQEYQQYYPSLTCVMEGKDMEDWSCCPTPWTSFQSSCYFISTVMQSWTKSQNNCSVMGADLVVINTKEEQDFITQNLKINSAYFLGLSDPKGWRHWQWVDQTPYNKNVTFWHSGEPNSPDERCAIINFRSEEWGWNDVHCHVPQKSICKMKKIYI

T3: Recombinant Human BDCA2 (human, UniProt Q8WTT0 45-213, limits assumed)
T3 construct: also called hBDCA2 (SPR analyte); human BDCA2 antigen
T3 sequence (looked up): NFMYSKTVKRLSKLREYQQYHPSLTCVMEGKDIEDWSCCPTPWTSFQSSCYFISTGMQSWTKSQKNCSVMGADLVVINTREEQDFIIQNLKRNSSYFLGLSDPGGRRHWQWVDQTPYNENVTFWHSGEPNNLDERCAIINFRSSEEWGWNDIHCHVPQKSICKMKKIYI


Columns and labels:
human BDCA2 [1] = target: T1, human BDCA2; assay: cell-based or functional assay
cynomolgus BDCA2 = target: T2, cynomolgus BDCA2; assay: FACS, 293F-cynoBDCA2 cells
Method: (§1) The cells were recovered and resuspended to 2×10⁶/mL with FACS buffer (PBS+2% FBS). The resuspended cells were added to 3799 cell plates at 100 μL/well, and the supernatant was discarded after centrifugation at 300 g. […] The cells were incubated at 4° C. for 1 h. The incubated cells were centrifuged at […] for 5 min and washed twice with FACS buffer. 100 μL Goat anti-Human IgG (H+L) Cross-Adsorbed Secondary Antibody, Alexa Fluor 488 (Sigma, A11013; 1:1000) secondary antibody was added, washed twice with FACS buffer after incubation at 4° C. for 1 h. The cells were resuspended with PBS, then the fluorescence signal of antibodies bound to cell surface was analyzed with FACS (BD FACS CantoTM II) instrument and curves were fitted with GraphPad Prism6 to calculate EC₅₀ values for antibodies binding to BDCA2 antigen.

human BDCA2 [2] = target: T1, human BDCA2; assay: FACS, CHOK1-humanBDCA2 cells
Method: as §1

Recombinant Human BDCA2 = target: T3, Recombinant Human BDCA2; assay: SPR (BIAcore), antibody captured by anti-human IgG (Fc), hBDCA2 as analyte, 1:1 model
Method: Then 1 M ethanolamine was injected at 10 μL/min flow rate for 420 seconds, and the excess active carboxyl groups on chip were blocked. The humanized antibodies were injected into a detection channel flow cell at flow rate of 10 μL/min for 60 s for capture after diluting to 1 μg/mL using running buffer. […] The sample hBDCA2 to be tested of each concentration gradient was injected into the detection channel at 30 μL/min flow rate, two samples at 0 concentration were used to remove background signal. The binding and dissociation times between antigen and antibody were 180 and 400 sec, respectively. An analysis of data was performed using Biacore Insight Evaluation Software (Version 2.0. 15.12933). A 1:1 binding model was selected for curve fitting and kinetic parameters were calculated after subtraction of signal of the reference channel (flow cell 1) and at 0 concentration.

Binder | EC50 (nM), inhibition of CpG-A stimulated IFNα release from human PBMC (human BDCA2 [1]) | EC50 (cynomolgus BDCA2) | EC50 (human BDCA2 [2]) | Kd (Recombinant Human BDCA2) | koff (Recombinant Human BDCA2) | kon (Recombinant Human BDCA2)
Hu033-02 (antibody, IgG1, V domains shown, Humanized IgG1; also called Hu033-02(BM2)) VH: EVQLVESGGGLVKPGGSLRLSCAASGFTFSSYGMSWVRQAPGKGLEWVSTISSGDSYTYYPDSVKGRFTISRDNAKNSLYLQMNSLRAEDTAVYYCARQIYYDYAYYFDFWGQGTTVTVSS VL: DIVLTQSPASLAVSPGQRATITCRASESVSFRTSHLMHWYQQKPGQPPKLLIYGASNLESGVPARFSGSGSETDFTLTINPVEAEDTANYYCQQSIEDPPTFGGGTKVEIK | 0.02 nM | 1.2 nM | 0.44 nM | 0.239 nM | 0.000169 s⁻¹ | 707000 M⁻¹ s⁻¹
Hu033-10 (antibody, IgG1, V domains shown, Humanized IgG1; also called Hu033-10(BM4)) VH: EVQLVESGGGLVKPGGSLRLSCAASGFTFRSYGMSWVRQAPGKRLEWVSTISSGDSYTYYPDSVKGRFTISRDNAKNSLYLQMNSLRAEDTAVYYCARQIYYDYAYYFDFWGQGTTVTVSS VL: DIVLTQSPASLAVSPGQRATITCRASESVSFRTSHLMHWYQQKPGQPPKLLIYGASNLESGVPARFSGSGSETDFTLTINPVEAEDTANYYCQQSIEDPPTFGGGTKVEIK | 0.01 nM | 1.27 nM | 0.51 nM | 0.2 nM | 0.000118 s⁻¹ | 589000 M⁻¹ s⁻¹
Hu033-16 (antibody, IgG1, V domains shown, Humanized IgG1; also called Hu033-16(BM4)) VH: EVQLVESGGGLVKPGGSLRLSCAASGFTFRSYGMSWVRQAPGKRLEWVSTISSGDSYTYYPDSVKGRFTISRDNAKNSLYLQMNSLRAEDTAVYYCARQIYYDYAYYFDFWGQGTTVTVSS VL: EIVLTQSPATLSLSPGERATLSCRASESVSFRTSHLMHWYQQKPGQAPRLLIYGASNLESGIPARFSGSGSETDFTLTISRLEPEDFAVYFCQQSIEDPPTFGGGTKVEIK | 0.01 nM | 1.37 nM | 0.63 nM | 0.191 nM | 0.000108 s⁻¹ | 569000 M⁻¹ s⁻¹
Hu033-04 (antibody, IgG1, V domains shown, Humanized IgG1; also called Hu033-04(BM0)) VH: EVQLVESGGGLVKPGGSLRLSCAASGFTFSSYGMSWVRQAPGKGLEWVSTISSGDSYTYYPDSVKGRFTISRDNAKNSLYLQMNSLRAEDTAVYYCARQIYYDYAYYFDFWGQGTTVTVSS VL: DIVMTQSPDSLAVSLGERATINCRASESVSFRTSHLMHWYQQKPGQPPKLLIYGASNLESGVPDRFSGSGSGTDFTLTISSLQAEDVAVYYCQQSIEDPPTFGGGTKVEIK | 0.03 nM | 1.33 nM | 0.61 nM | 0.323 nM | 0.000193 s⁻¹ | 598000 M⁻¹ s⁻¹
Hu033-15 (antibody, IgG1, V domains shown, Humanized IgG1; also called Hu033-15(BM2)) VH: EVQLVESGGGLVKPGGSLRLSCAASGFTFRSYGMSWVRQAPGKRLEWVSTISSGDSYTYYPDSVKGRFTISRDNAKNSLYLQMNSLRAEDTAVYYCARQIYYDYAYYFDFWGQGTTVTVSS VL: EIVLTQSPATLSLSPGERATLSCRASESVSFRTSHLMHWYQQKPGQAPRLLIYGASNLESGIPARFSGSGSGTDFTLTISRLEPEDFAVYYCQQSIEDPPTFGGGTKVEIK | 0.02 nM | 1.27 nM | 0.76 nM | 0.467 nM | 0.000227 s⁻¹ | 487000 M⁻¹ s⁻¹
Hu033-23 (antibody, IgG1, V domains shown, Humanized IgG1; also called Hu033-23(BM3)) VH: EVQLVESGGGLVKPGGSLRLSCAASGFTFRSYGMSWVRQAPGKRLEWVSTISSGDSYTYYPDSVKGRFTISRDNAKNSLYLQMNSLKAEDTAVYYCARQIYYDYAYYFDFWGQGTTVTVSS VL: EIVLTQSPATLSLSPGERATLSCRASESVSFRTSHLMHWYQQKPGQAPRLLIYGASNLESGIPARFSGSGSGTDFTLTISRLEPEDFAVYYCQQSIEDPPTFGGGTKVEIK | 0.03 nM | 1.24 nM | 0.79 nM | 0.444 nM | 0.000207 s⁻¹ | 466000 M⁻¹ s⁻¹
Hu033-06 (antibody, IgG1, V domains shown, Humanized IgG1; also called Hu033-06(BM3)) VH: EVQLVESGGGLVKPGGSLRLSCAASGFTFSSYGMSWVRQAPGKGLEWVSTISSGDSYTYYPDSVKGRFTISRDNAKNSLYLQMNSLRAEDTAVYYCARQIYYDYAYYFDFWGQGTTVTVSS VL: DIVLTQSPDSLAVSLGERATINCRASESVSFRTSHLMHWYQQKPGQPPKLLIYGASNLESGVPDRFSGSGSETDFTLTISPLQAEDVAVYFCQQSIEDPPTFGGGTKVEIK | 0.02 nM | 1.41 nM | 0.62 nM | 0.17 nM | 0.000125 s⁻¹ | 733000 M⁻¹ s⁻¹
Hu033-12 (antibody, IgG1, V domains shown, Humanized IgG1; also called Hu033-12(BM2)) VH: EVQLVESGGGLVKPGGSLRLSCAASGFTFRSYGMSWVRQAPGKRLEWVSTISSGDSYTYYPDSVKGRFTISRDNAKNSLYLQMNSLRAEDTAVYYCARQIYYDYAYYFDFWGQGTTVTVSS VL: DIVMTQSPDSLAVSLGERATINCRASESVSFRTSHLMHWYQQKPGQPPKLLIYGASNLESGVPDRFSGSGSGTDFTLTISSLQAEDVAVYYCQQSIEDPPTFGGGTKVEIK | 0.02 nM | 1.07 nM | 0.45 nM | 0.283 nM | 0.000149 s⁻¹ | 527000 M⁻¹ s⁻¹
Hu033-13 (antibody, IgG1, V domains shown, Humanized IgG1; also called Hu033-13(BM4)) VH: EVQLVESGGGLVKPGGSLRLSCAASGFTFRSYGMSWVRQAPGKRLEWVSTISSGDSYTYYPDSVKGRFTISRDNAKNSLYLQMNSLRAEDTAVYYCARQIYYDYAYYFDFWGQGTTVTVSS VL: DIVLTQSPDSLAVSLGERATINCRASESVSFRTSHLMHWYQQKPGQPPKLLIYGASNLESGVPDRFSGSGSGTDFTLTISSLQAEDVAVYFCQQSIEDPPTFGGGTKVEIK | 0.01 nM | 1.13 nM | 0.68 nM | 0.338 nM | 0.000153 s⁻¹ | 454000 M⁻¹ s⁻¹
Hu033-08 (antibody, IgG1, V domains shown, Humanized IgG1; also called Hu033-08(BM2)) VH: EVQLVESGGGLVKPGGSLRLSCAASGFTFSSYGMSWVRQAPGKGLEWVSTISSGDSYTYYPDSVKGRFTISRDNAKNSLYLQMNSLRAEDTAVYYCARQIYYDYAYYFDFWGQGTTVTVSS VL: EIVLTQSPATLSLSPGERATLSCRASESVSFRTSHLMHWYQQKPGQAPRLLIYGASNLESGIPARFSGSGSETDFTLTISRLEPEDFAVYFCQQSIEDPPTFGGGTKVEIK | 0.02 nM | 1.53 nM | 0.62 nM | 0.229 nM | 0.000169 s⁻¹ | 740000 M⁻¹ s⁻¹
